One test concerns the target T1, cynomolgus ICOS (cynomolgus).
T1 construct: also called cyno ICOS; Biacore cyno
As to the kind of experiment: Biacore, cyno ICOS. A general note: In SPR one partner is held on a chip, and binding of the other changes the refractive index at the surface.

In another test the target is T2, human ICOS on cells (human, UniProt Q9Y6W8 21-167).
T2 sequence: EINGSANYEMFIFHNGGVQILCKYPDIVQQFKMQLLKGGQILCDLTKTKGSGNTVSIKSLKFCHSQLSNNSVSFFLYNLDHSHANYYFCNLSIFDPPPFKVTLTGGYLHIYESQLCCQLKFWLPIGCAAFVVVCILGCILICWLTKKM
As to the kind of experiment: cell-based or functional assay.

For a further test, the target named is T3, Cyno ICOS-Fc (cynomolgus; rabbit).
T3 construct: also called cyno ICOS (rabbit Fc)
The test is described as follows: BIAcore T200, antibody captured on anti-human IgG, ICOS (rabbit Fc) as analyte, 25 C, 1:1 model. As for the experimental part: The binding kinetics affinity of the humanized H2L5 hIgG4PE antibody was determined used the BIAcore T200Anti-human IgG on Fc2 of a CM5 chip Anti-ICOS H2L5 hIgG4PE captured on the surface. Anti-human IgG surface blocked with 0.1 mg/mL hIgG1 control to prevent non-specific binding of rabbit Fc. Human and cyno ICOS (rabbit Fc) passed over the captured antibodies at 256 nM, 64 nM, 16 nM, 4 nM and 1 nM. Buffer alone was used to double reference binding curves. MgCl₂ was used to regenerate surface. Run carried out at 25° C. Data fitted to 1:1 model using T200 evaluation software. Antibody concentration: 2.5 μg/mL
The ICOS binding data was fitted to a 1:1 kinetics model using the T200 data analysis software.

One may read the Kd as a measure of binding affinity in units of concentration. Higher therefore signals weaker binding. In general, koff refers to the first-order rate constant of dissociation. For orientation: kon means the rate constant with which the complex forms. A lower kon goes with slow association.

B1: ICOS mAb clone 422.2 (antibody, V domains shown)
VH: QVQLQQSGPELVRPGESVKISCMGSGYTFTDYAMHWVKQSHAKSLEWIGLISIYSDHTNYNQKFQGKATMTVDKSSSTAYMELARLTSEDSAIYYCGRNNYGNYGWYFDVWGAGTTVTVSS
VL: ENVLTQSPAIMSASPGEKVTMTCSASSSVSYMHWYQQKSITSPKLWIYDTSKLASGVPGRFSGSGSGNSYSLTISSMEAEDVATYYCFQGSGYPYTFGGGTKLEIKR
notes: murine hybridoma mAb
As to B1, in the test with cynomolgus ICOS, the Kd is 4.46 nM. This lies in the single-digit nanomolar range.

B2: ICOS mAb clone 88.2 (antibody, V domains shown)
VH: QVQLQQPGAELVRPGASVKLSCKASGYSFTSYWINWVKQRPGQGLEWIGNIYPSDSYTNYNQMFKDKATLTVDKSSNTAYMQLTSPTSEDSAVYYCTRWNLSYYFDNNYYLDYWGQGTTLTVSS
VL: QAVVTQESALTTSPGETVTLTCRSSTGAVTTSNYANWVQEKPDHLFTGLIGGTNNRAPGVPARFSGSLIGDKAALTITGAQTEDEAIYFCALWYNNHLVFGGGTKLTVL
notes: murine anti-human ICOS mAb
As to B2, the Kd with cynomolgus ICOS is 23 nM.

B3: H2L5 hIgG4PE (antibody)
heavy: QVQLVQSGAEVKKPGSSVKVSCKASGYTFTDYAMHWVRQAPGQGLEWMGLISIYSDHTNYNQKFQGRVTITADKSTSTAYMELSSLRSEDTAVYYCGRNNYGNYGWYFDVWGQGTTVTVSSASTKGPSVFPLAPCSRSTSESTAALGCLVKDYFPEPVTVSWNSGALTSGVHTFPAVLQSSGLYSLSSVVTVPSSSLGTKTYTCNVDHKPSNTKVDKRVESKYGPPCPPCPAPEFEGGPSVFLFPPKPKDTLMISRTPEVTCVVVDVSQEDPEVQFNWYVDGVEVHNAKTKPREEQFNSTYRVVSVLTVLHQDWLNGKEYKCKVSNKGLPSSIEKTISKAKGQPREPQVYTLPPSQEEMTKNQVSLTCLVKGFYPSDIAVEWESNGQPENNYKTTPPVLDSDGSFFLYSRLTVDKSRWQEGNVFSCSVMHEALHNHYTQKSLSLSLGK
light: EIVLTQSPATLSLSPGERATLSCSASSSVSYMHWYQQKPGQAPRLLIYDTSKLASGIPARFSGSGSGTDYTLTISSLEPEDFAVYYCFQGSGYPYTFGQGTKLEIKRTVAAPSVFIFPPSDEQLKSGTASVVCLLNNFYPREAKVQWKVDNALQSGNSQESVTEQDSKDSTYSLSSTLTLSKADYEKHKVYACEVTHQGLSSPVTKSFNRGEC
notes: also called H2L5 IgG4PE; copies: 2 + 2
On to B3, for which, in the test with human ICOS on cells, the “EC50 CD8+OX40+, donor 1149M52, 24 hr” value was 1.5 µg/mL and the “EC50 IFN-γ, donor 1136F50, 48 hr” value came to 1.5 µg/mL. In the test with Cyno ICOS-Fc, binding was put at a Kd of 0.949 nM, the koff was found to be 0.000371 s⁻¹ and the kon worked out at 391000 M⁻¹ s⁻¹.

These data come from patent US20180030136A1 (GlaxoSmithKline, published 2018).
